A word on the IC50: it is the concentration that gives 50% inhibition.

For this experiment, the target named is HLA-DR15 (HLA-DRB1*1501) (Homo sapiens, UniProt P01903+P01911). As to the kind of experiment: Competitive ELISA against biotinylated pp65 (pp65bio) for binding to HLA-DR. To be noted: pp65bio 150 nM, HLA-DR15 150 nM, non-biotinylated competitor 7.8 nM - 1 μM, HLA-DM 150 nM, PBS, 37°C, 18 h, triplicate, ± SD, read-out: IC50 in competition with pp65bio for HLA-DR15.

In the case of “MBP85-97: myelin basic protein peptide 85-97 fused to C-terminus of bacterial thioredoxin through (SGGGG)3S linker with His-tags (PVVHFFKNIVTPR; not fully specified; C-terminal fusion to thioredoxin via (SGGGG)3S linker (left out))”, the concentration for half-maximal inhibition (IC50) was determined as 120 ± 20 nM.

(Values after publication PMC8084299, “Peculiarities of the Presentation of the Encephalitogenic MBP Peptide by HLA-DR Complexes Providing Protection and Predisposition to Multiple Sclerosis” (Acta Naturae, 2021).)
